Laboratory results as given in paper doi:10.1101/2020.03.25.005199.

Molecular target: Orai1-GFP (UniProt Q96D31)
Test: FRET or BRET

Chain of UniProt Q96D31 (Q96D31 whole entry): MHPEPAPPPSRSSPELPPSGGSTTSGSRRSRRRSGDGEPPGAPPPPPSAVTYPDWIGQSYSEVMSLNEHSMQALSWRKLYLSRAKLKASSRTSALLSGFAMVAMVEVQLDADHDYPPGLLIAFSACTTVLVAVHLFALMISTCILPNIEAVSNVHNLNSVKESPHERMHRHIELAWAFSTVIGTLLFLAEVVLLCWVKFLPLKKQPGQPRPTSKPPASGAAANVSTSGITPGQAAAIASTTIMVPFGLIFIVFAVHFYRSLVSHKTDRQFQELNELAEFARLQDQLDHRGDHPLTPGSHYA

In the case of “STIM1A-mCherry (from UniProt Q13586) (natural protein)”, the E-FRET is reported as 0.26.
